This note sets out measurements from patent US20210079084A1 (OPSIDIO, published 2021).

Where a chain is given by its changes, count along the chain named.

The target in assay [1] is T1, human stem cell factor isoform SCF248 (human, UniProt P21583 26-273).
T1 construct: also called hSCF248; soluble SCF
Nature of the assay: binding score, flow cytometry on S1/S14 hSCF248 cells. (In general: In flow cytometry, cells or beads pass a laser one at a time.)

Assay [2] concerns the target T2, human stem cell factor isoform SCF220 (human, UniProt P21583-2 26-245).
T2 construct: whole, on cells; also called hSCF220; membrane SCF
Nature of the assay: flow cytometry on S1/S14 hSCF220 cells.

Assay [3] deals with T1, human stem cell factor isoform SCF248. Nature of the assay: flow cytometry on S1/S14 hSCF248 cells; printed as BC50 (50% maximal binding).
The target of assay [4] is T2, human stem cell factor isoform SCF220. Nature of the assay: flow cytometry, directly labelled antibody on S1/S14 hSCF220 cells. The method, then: Binding of the labeled antibody to the cells was assessed by flow cytometry.
The target is the same in assay [5]. Nature of the assay: flow cytometry on the SCF220-expressing cell line.

T2 sequence (P21583 other isoform, or with tags, fused parts or gaps): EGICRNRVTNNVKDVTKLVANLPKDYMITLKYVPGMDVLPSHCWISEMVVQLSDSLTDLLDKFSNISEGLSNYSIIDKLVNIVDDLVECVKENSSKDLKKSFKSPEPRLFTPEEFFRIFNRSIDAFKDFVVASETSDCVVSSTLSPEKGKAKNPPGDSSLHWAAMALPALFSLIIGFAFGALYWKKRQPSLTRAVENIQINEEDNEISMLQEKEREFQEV
T1 sequence (P21583 26-273 limits assumed): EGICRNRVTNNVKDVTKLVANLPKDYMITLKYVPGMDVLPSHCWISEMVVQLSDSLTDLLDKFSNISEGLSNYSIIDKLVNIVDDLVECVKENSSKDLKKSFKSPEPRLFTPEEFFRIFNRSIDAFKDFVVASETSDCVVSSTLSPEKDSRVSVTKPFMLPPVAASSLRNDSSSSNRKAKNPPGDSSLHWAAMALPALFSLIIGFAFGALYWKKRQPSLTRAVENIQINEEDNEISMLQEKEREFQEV

B1: 5H10 VH2/VK2 (antibody, V domains shown)
VH: QVQLVQSGAEVKKPGSSVKISCKSSGYAFSSYWMNWVKQRPGQGLEWIGQIYPGDGDTHYNGKFKGKATLTADKSTSTAYMELSSLRSEDTAVYFCSSSNWVGSYWGQGTLVTVSS
VL: DVVMTQSPLSLPVTLGQPASISCKSSQSLLESDGKTYLNWLQQRPGQSPRRLIYLVSRLDSGVPDRFTGSGSGTDFTLKISRVEAEDVGVYYCWQGTHLPQTFGGGTKVEIK
notes: Humanized; Only variable regions are tied to the name
With B1, the binding result in assay [1] is recorded as “binds”.

B2: 5H10 VH3/VK3 (antibody, V domains shown)
VH: B1 VH with I20V, K38R
VL: B1 VL with T68S
notes: as for B1
The term EC50 denotes the concentration at which the effect is half-maximal. With B2, the binding result in assay [2] was “no binding”. In assay [3], the response was half-maximal at 0.9 µg/mL (EC50).

B3: 5H10 VH0/VK0 (chimeric 5H10) (antibody, V domains shown)
VH: B1 VH with V5Q, V11L, K12V, K13R, T76S, E82Q, S85R, R87T, T91S, S116A
VL: not shown
notes: also called chimeric antibody 5H10
Consider B3, for which the binding result in assay [2] is reported as “no binding”.

B4: murine 5H10 antibody (antibody, V domains shown)
VH: B1 VH with V5Q, V11L, K12V, K13R, T76S, E82Q, S85R, R87T, T91S, S116A
VL: not shown
notes: Murine monoclonal from a hybridoma, kappa light chain; also called OpSCF; murine parent 5H10
On to B4, for which the binding result in assay [4] is on record as “no binding”.

B5: 5H10 VH5/VK2 (antibody, V domains shown)
VH: B1 VH with I20V, K38R, K65Q, K67R, A68V, L70I, F95Y
VL: B1 VL
notes: as for B1
For B5, the binding result in assay [2] is recorded as “no binding”.

B6: 5H10 VH1/VK2 (antibody, V domains shown)
VH: B1 VH with V11L, R87T, T91S
VL: B1 VL
notes: as for B1
On to B6, for which the binding result in assay [1] is reported as “binds”.

B7: 5H10 VH4/VK2 (antibody, V domains shown)
VH: B1 VH with I20V, K38R, K67R, A68V, L70I
VL: B1 VL
notes: as for B1
In the case of B7, in assay [2], the binding result is listed as “no binding”.

B8: 5H10 VH5/VK3 (antibody, V domains shown)
VH: B1 VH with I20V, K38R, K65Q, K67R, A68V, L70I, F95Y
VL: B1 VL with T68S
notes: as for B1
As for B8, the binding result in assay [2] is given as “no binding”.

B9: 5H10 VH1/VK3 (antibody, V domains shown)
VH: B1 VH with V11L, R87T, T91S
VL: B1 VL with T68S
notes: as for B1
B9: in assay [5], the binding result is on record as “no binding”.

B10: 5H10 VH2/VK3 (antibody, V domains shown)
VH: B1 VH
VL: B1 VL with T68S
notes: as for B1
For the molecule B10, the binding result in assay [5] is reported as “no binding”.

B11: 5H10 VH3/VK2 (antibody, V domains shown)
VH: B1 VH with I20V, K38R
VL: B1 VL
notes: as for B1
With B11, the binding result in assay [2] was “no binding”.

B12: 5H10 VH4/VK3 (antibody, V domains shown)
VH: B1 VH with I20V, K38R, K67R, A68V, L70I
VL: B1 VL with T68S
notes: as for B1
For the molecule B12, the binding result in assay [2] was “no binding”.

B13: 5H10 VH1/VK1 (antibody, V domains shown)
VH: B1 VH with V11L, R87T, T91S
VL: B1 VL with S10T, P12S
notes: as for B1
As to B13, the binding result in assay [1] is on record as “binds”.
